Biological target: in vitro translated 35S-labelled p53 (wild-type) (UniProt P04637)

Substance: GST-Hades RING-mutant peptide (C302S/C305S)
- in vitro ubiquitination of p53 with E1, E2 (UbcH5c) and His-ubiquitin, anti-p53 immunoblot: The p53 ubiquitination was only induce by Hades

— patent US20130157959
